From patent publication US20260055180A1

Biological target: murine DLL3.HIS (IPA custom, amino acid 25-477) (mouse) (UniProt O88516)
Test: BLI (Octet), captured on AHC sensor, antigen in solution

Sequence of murine DLL3.HIS (IPA custom, amino acid 25-477) (mouse) (O88516 25-477 limits assumed, form in doubt): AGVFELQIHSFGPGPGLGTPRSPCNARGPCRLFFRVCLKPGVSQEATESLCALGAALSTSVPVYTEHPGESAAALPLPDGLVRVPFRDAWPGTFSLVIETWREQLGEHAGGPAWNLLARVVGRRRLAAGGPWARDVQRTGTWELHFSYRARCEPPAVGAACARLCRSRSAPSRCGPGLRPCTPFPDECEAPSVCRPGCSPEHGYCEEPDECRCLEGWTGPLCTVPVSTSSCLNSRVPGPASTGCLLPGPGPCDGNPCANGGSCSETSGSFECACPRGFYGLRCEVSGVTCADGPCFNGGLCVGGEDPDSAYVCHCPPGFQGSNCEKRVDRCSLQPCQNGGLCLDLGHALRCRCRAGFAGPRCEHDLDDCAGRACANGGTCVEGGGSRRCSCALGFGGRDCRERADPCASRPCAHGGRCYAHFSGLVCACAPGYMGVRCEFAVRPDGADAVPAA

B1: DLL3 VHH (Fc fusion, not shown: small tags and cut ends; a dimerising Fc or GST)
chain: EVQLVESGGGEVQPGGSLRLSCAASGSIFSINAMGWYRQAPGKQRELVAGFTGDTNTIYAESVKGRFTISRDNAKNTVYLQMSSLRAEDTAVYYCAADVQLFSRDYEFYWGQGTLVTVKP
koff: 0.000267 s⁻¹ | kon: 215000 M⁻¹ s⁻¹
